Numbering of substitutions follows the chain as printed.

B1: TMPRSS4 Ab19 scFv (VH-VL) (scFv)
scFv: QVQLVQSGAEVKKPGASVKVSCKASGYTFNRKFMHWVRQAPGQGLEWMGWMNPNNGATNYAQKFQGRVTMTRDTSTSTVYMELSSLRSEDTAVYYCARGRGYYGSGSYYGDYWGQGTLVTVSSGGGGSGGGGSGGGGSDIQMTQSPSSLSASVGDRVTITCRASQSISRYLNWYQQKPGKAPKLLIYGASNLQSGVPSRFSGSGSGTDFTLTISSLQPEDFATYYCQQSYSTPPTFGPGTKVDIK
notes: on monoclonal phage in the screen
B2: TMPRSS4 Ab20 scFv (VH-VL) (scFv)
scFv: QVQLVQSGAEVKKPGASVKVSCKASGYTFTRYYMHWVRQAPGQGLEWMGWMNPNSGNAGYAQKLQGRVTMTRDTSTSTVYMELSSLRSEDTAVYYCARGYNWFDPWGQGTLVTVSSGGGGSGGGGSGGGGSDIQMTQSPSSLSASVGDRVTITCRASQNIATYLSWYQQKPGKAPKLLIYGASALRSGVPSRFSGSGSGTDFTLTISSLQPEDFATYYCLQHNTYPLTFGGGTKVEIK
notes: as for B1
B3: TMPRSS4 Ab14 scFv (VH-VL) (scFv)
scFv: EVQLLESGGGLVQPGGSLRLSCAASGFTFSNHYMSWVRQAPGKGLEWVSAISGSGGSTYYADSVKGRFTISRDNSKNTLYLQMNSLRAGDTAVYYCARDRYRWGRGYFQHWGQGTLVTVSSGGGGSGGGGSGGGGSDIQMTQSPSSLSASVGDRVTITCRASQRISTYLNWYQQKPGKAPKLLIYSASTLQAGVPSRFSGSGSGTDFTLTISSLQPEDFATYYCQQAYSLPWTFGQGTKLEIK
notes: as for B1
B4: TMPRSS4 Ab25 scFv (VH-VL) (scFv)
scFv: QVQLVQSGAEVKKPGASVKVSCKASGGRFSTYALSWVRQAPGQGLEWMGWINPNSGGTNYAQKFQGRVTMTRDTSTSTVYMELSSLRSEDTAVYYCAKSLWWSPSHYYYYGMDVWGQGTTVTVSSGGGGSGGGGSGGGGSEIVMTQSPATLSVSPGERATLSCRASQSVSSNYLAWYQQKPGQAPRLLIYGISTRASGIPARFSGSGSGTEFTLTISSLQSEDFAVYYCQQRSNWPPSITFGQGTRLEIK
notes: as for B1
B5: TMPRSS4 Ab23 scFv (VH-VL) (scFv)
scFv: QVQLVQSGAEVKKPGASVKVSCKASGYTFTRNYLHWVRQAPGQGLEWMGIINPSGGSTTYAQKFQGRVTMTRDTSTSTVYMELSSLRSEDTAVYYCARGRTWFRSGMDVWGQGTTVTVSSGGGGSGGGGSGGGGSEIVMTQSPATLSVSPGERATLSCRASQSVGNYLAWYQQKPGQAPRLLIYGASTRATGIPARFSGSGSGTEFTLTISSLQSEDFAVYYCQQYHSSPPYTFGQGTKVEIK
notes: as for B1
B6: TMPRSS4 Ab16 scFv (VH-VL) (scFv)
scFv: QVQLVQSGAEVKKPGASVKVSCKASGYTFSRHYMHWVRQAPGQGLEWMGRINPNSGGTNYAQKFQGRVTMTRDTSTSTVYMELSSLRSEDTAVYYCARSIYGDYWFDPWGQGTLVTVSSGGGGSGGGGSGGGGSDIQMTQSPSSLSASVGDRVTITCRASQSINRWLAWYQQKPGKAPKLLIYGASNLQSGVPSRFSGSGSGTDFTLTISSLQPEDFATYYCQQANSFPYTFGQGTKLEIK
notes: as for B1
B7: TMPRSS4 Ab12 scFv (VH-VL) (scFv)
scFv: QVQLVQSGAEVKKPGASVKVSCKASGYTFSNYYIHWVRQAPGQGLEWMGWINPNSGDTNYAQKFQGRVTMTRDTSTSTVYMELSSLRSEDTAVYYCARGMTWRTSAATYWGQGTLVTVSSGGGGSGGGGSGGGGSDIQMTQSPSSLSASVGDRVTITCRASQGISRWLAWYQQKPGKAPKLLIYGASNLQTGVPSRFSGSGSGTDFTLTISSLQPEDFATYYCQQSYSTPPTFGPGTKVDIK
notes: as for B1
B8: TMPRSS4 Ab1 scFv (VH-VL) (scFv)
scFv: QVQLVQSGAEVKKPGSSVKVSCKASGYTFTDYYMHWVRQAPGQGLEWMGGIIPIFGTANYAQKFQGRVTITADESTSTAYMELSSLRSEDTAVYYCAKEGANGYWGQGTLVTVSSGGGGSGGGGSGGGGSDIQMTQSPSSLSASVGDRVTITCQASQDISNYLNWYQQKPGKAPKLLIYKASSLESGVPSRFSGSGSGTDFTLTISSLQPEDFATYYCQQSSRIPPTFGQGTKVEIK
notes: as for B1
B9: TMPRSS4 Ab24 scFv (VH-VL) (scFv)
scFv: QVQLVQSGAEVKKSGASVKVSCKASGYTFTSYYMHWVRQAPGQGLEWMGVINPSGGTTSYAQKFQGRVTMTRETSTSTVYMELSSLRSEDTAVYYCARGRGWLRSALGYWGQGTLVTVSSGGGGSGGGGSGGGGSDIQMTQSPSSLSASVGDRVTITCRASQSISSWLAWYQQKPGKAPKLLIYAASTLQSGVPSRFSGSGSGTDFTLTISSLQPEDFATYYCQQSYNTPYTFGQGTKLEIK
notes: as for B1
B10: TMPRSS4 Ab18 scFv (VH-VL) (scFv)
scFv: QVQLVQSGAEVKKPGASVKVSCKASGYTFTSSGINWVRQAPGQGLEWMGWINPNSGGAKYAQRFQGRVTMTRDTSTSTVYMELSSLRSEDTAVYYCARARGYSGSKRDFQHWGQGTLVTVSSGGGGSGGGGSGGGGSDIVMTQSPDSLAVSLGERATINCKSSQSVLYSSNNKNYLAWYQQKPGQPPKLLIYWASTRESGVPDRFSGSGSGTDFTLTISSLQAEDVAVYHCQQYYNTPFTFGPGTKVDIK
notes: as for B1
B11: TMPRSS4 Ab17 scFv (VH-VL) (scFv)
scFv: QVQLVQSGAEVKKPGASVKVSCKASGYTFTSYYIHWVRQAPGQGLEWMGWMSPNSGDTGYAQKFQGRVTMTRDTSTSTVYMELSSLRSEDTAVYYCARLVRGGFDYWGQGTLVTVSSGGGGSGGGGSGGGGSDIQMTQSPSSLSASVGDRVTITCRASQGISSYLNWYQQKPGKAPKLLIYAASRLQSGVPSRFSGSGSGTDFTLTISSLQPEDFATYYCQQSYRSPPTFGQGTKLEIK
notes: as for B1
B12: TMPRSS4 Ab27 scFv (VH-VL) (scFv)
scFv: QVQLVQSGAEVKKPGASVKVSCKASGYTFSRYYMHWVRQAPGQGLEWMGWMNPNSGDTGYAQKFQGRVTMTRDTSTSTVYMELSSLRSEDTAVYYCAKGREWLRSPFDYWGQGTLVTVSSGGGGSGGGGSGGGGSDIQMTQSPSSLSASVGDRVTITCRASQSISTWLAWYQQKPGKAPKLLIYAASSLQSGVPSRFSGSGSGTDFTLTISSLQPEDFATYYCQQLSSYPLTFGQGTKVEIK
notes: as for B1
B13: TMPRSS4 Ab11 scFv (VH-VL) (scFv)
scFv: QVQLVQSGAEVKKPGASVKVSCKASGGTFSNYAISWVRQAPGQGLEWVGRINPNSGGTNYAQKFQGRVTMTRDTSTSTVYMELSSLRSEDTAVYYCARGRYSSSSWGQGTLVTVSSGGGGSGGGGSGGGGSDIQMTQSPSSLSASVGDRVTITCRASQSINNYLNWYQQKPGKAPKLLIYAASSLQSGVPSRFSGSGSGTDFTLTISSLQPEDFATYYCQQSYSTKWTFGQGTKVEIK
notes: as for B1
B14: TMPRSS4 Ab22 scFv (VH-VL) (scFv)
scFv: QVQLVQSGAEVKKPGASVKVSCKASGYTFTSYYMHWVRQAPGQGLEWMGRINPHSGDADFVDKFQGRVTMTRDTSTSTVYMELSSLRSEDTAVYYCARDRRGYGGNSLDYWGQGTLVTVSSGGGGSGGGGSGGGGSDIQMTQSPSSLSASVGDRVTITCRAGQNIKRYLNWYQQKPGKAPKLLIYAASSLQSGVPSRFSGSGSGTDFTLTISSLQPEDFATYYCQQSYSSPLTFGGGTKVEIK
notes: as for B1
B15: TMPRSS4 Ab15 scFv (VH-VL) (scFv)
scFv: QVQLVQSGAEVKKPGASVKVSCKASGYTFTRYYMHWVRQAPGQGLEWMGWINPNSGVTNFAQKFQGRVTMTRDTSTSTVYMELSSLRSEDTAVYYCARVRIGWLQSPPLYWGQGTLVTVSSGGGGSGGGGSGGGGSDIQMTQSPSSLSASVGDRVTITCRASQSINTWLAWYQQKPGKAPKLLIYAASSLQSGVPSRFSGSGSGTDFTLTISSLQPEDFATYYCQQAISFPLTFGGGTKVEIK
notes: as for B1
B16: TMPRSS4 Ab46 scFv (VH-VL) (scFv)
scFv: B15 scFv with T30S, Y33F, V57G, F60Y, N166S, A227S, I228Y, S229G, L232W, G236Q
notes: as for B1
B17: TMPRSS4 Ab26 scFv (VH-VL) (scFv)
scFv: EVQLLESGGGLVQPGGSLRLSCAASGFTFSSYAMHWVRQAPGKGLEWVAVIWYDGSSKYYADSVKGRFTISRDNSKNTLYLQMNSLRAEDTAVYYCARGEVRRGFQHWGQGTLVTVSSGGGGSGGGGSGGGGSDIQMTQSPSSLSASVGDRVTITCRASQNVGSWLAWYQQKPGKAPKLLIYAASSLQSGVPSRFSGSGSGTDFTLTIRSLQPEDFATYYCQQSYSTPITFGQGTRLEIK
notes: as for B1
B18: TMPRSS4 Ab10 scFv (VH-VL) (scFv)
scFv: QVQLVQSGAEVKKPGASVKVSCKASGYTFTSYYMHWVRQAPGQGLEWMGIINPSGAGTTYGHNFQGRVTMTRDTSTSTVYMELSSLRSEDTAVYYCARGPRDTAMVRFDYWGQGTLVTVSSGGGGSGGGGSGGGGSEIVMTQSPATLSVSPGERATLSCRASQSVSSYLAWYQQKPGQAPRLLIYGASTRATGIPARFSGSGSGTEFTLTISSLQSEDFAVYYCQQYGSSPGTFGQGTKLEIK
notes: as for B1
B19: TMPRSS4 Ab13 scFv (VH-VL) (scFv)
scFv: QVQLVQSGAEVKKPGASVKVSCKASGYTFTNYYMHWVRQAPGQGLEWMGWISAYNGNTNYAQKLQGRVTMTRDTSTSTVYMELSSLRSEDTAVYYCATASGWGHSNSAGYWGQGTLVTVSSGGGGSGGGGSGGGGSEIVMTQSPATLSVSPGERATLSCRASQSVNGNYLAWYQQKPGQAPRLLIYGVSSRASGIPARFSGSGSGTEFTLTISSLQSEDFAVYYCQQYGSSPYTFGQGTKVEIK
notes: as for B1
B20: TMPRSS4 Ab2 scFv (VH-VL) (scFv)
scFv: EVQLLESGGGLVQPGGSLRLSCAASGFTFSDYYMSWVRQAPGKGLEWVSYISGSGDAIYYADSVKGRFTISRDNSKNTLYLQMNSLRAEDTAVYYCARDRSDCGGDDRFLCDGYFDLWGRGTLVSLSGGGGSGGGGSGGGGSDIQMTQSPSSLSASVGDRVTITCRASQSTNNYVNWYQQKPGKAPKLLIYAASSLQSGVPSRFSGSGSGTDFTLTISSLQPEDFATYYCQQSYSIPLTFGPGTKVDIK
notes: as for B1

For this assay, the target named is T1, Human TMPRSS4 (Transmembrane protease, serine 4), wild type full length (human, UniProt Q9NRS4 1-437).
T1 construct: Type II membrane protein over-expressed on HEK293T cells (also endogenous on H1975 and LUDLU-1 cells); also called TMPRSS4 WT; HEK293T-TMPRSS4
T1 sequence (Q9NRS4 whole entry): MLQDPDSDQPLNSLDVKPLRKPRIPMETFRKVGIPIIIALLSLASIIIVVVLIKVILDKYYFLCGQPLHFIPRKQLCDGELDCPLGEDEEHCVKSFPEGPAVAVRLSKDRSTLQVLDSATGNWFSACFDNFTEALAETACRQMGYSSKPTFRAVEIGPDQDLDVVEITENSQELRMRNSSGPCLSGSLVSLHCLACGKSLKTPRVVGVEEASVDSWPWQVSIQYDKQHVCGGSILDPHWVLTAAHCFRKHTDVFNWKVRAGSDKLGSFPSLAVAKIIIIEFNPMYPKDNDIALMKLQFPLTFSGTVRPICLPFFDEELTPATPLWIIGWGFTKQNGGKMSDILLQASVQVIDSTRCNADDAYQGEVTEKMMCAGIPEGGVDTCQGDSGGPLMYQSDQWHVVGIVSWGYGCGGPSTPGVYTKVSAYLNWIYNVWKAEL
Description: flow cytometry, monoclonal phage on HEK293T-TMPRSS4 cells.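 Also: bound phage detected with a PE-labelled mouse anti-M13 monoclonal antibody, read by flow cytometry.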
In the case of B1, the binding result is reported as “binds”.

B2: the binding result is listed as “binds”.

As for B3, the binding result is given as “binds”.

B4: the binding result was “binds”.

For B5, the binding result is reported as “binds”.

For B6, the binding result is “binds”.

As for B7, the binding result is on record as “binds”.

With B8, the binding result is given as “binds”.

As to B9, the binding result is reported as “binds”.

With B10, the binding result is “binds”.

For the molecule B11, the binding result was “binds”.

On to B12, for which the binding result was “binds”.

Regarding B13, the binding result is “binds”.

As for B14, the binding result is reported as “binds”.

As to B15, the binding result is on record as “binds”.

As to B16, the binding result was “binds”.

Regarding B17, the binding result is given as “binds”.

Consider B18, for which the binding result is reported as “binds”.

For B19, the binding result is reported as “binds”.

With B20, the binding result is listed as “binds”.

Source of the values: US20250297255A1 (ARSENAL BIOSCIENCES, published 2025).
